How the values were obtained:
[1] = biological target: recombinant human VEGF (R&D, 293-VE-010) (human) (UniProt P15692); experiment: Octet HTX biosensor, 1x kinetics buffer; antibody at 10 ug/mL in buffer, recombinant human VEGF 200 nM to 3.125 nM
[2] = biological target: recombinant human VEGF (R&D, 293-VE-010) (human) (UniProt P15692); experiment: Octet HTX biosensor; antibody prepared in conditioned medium and diluted to 10 ug/mL in 1x kinetics buffer, recombinant human VEGF 200 nM to 3.125 nM
[3] = biological target: recombinant human VEGF (R&D, 293-VE-010) (human) (UniProt P15692); experiment: Octet HTX biolayer interferometry in 1x kinetics buffer; antibody at 10 ug/mL in buffer as loading sample, recombinant human VEGF 200 to 3.125 nM (data of FIG. 3A); ka Error printed 7.60E+02
[4] = biological target: recombinant human VEGF (R&D, 293-VE-010) (human) (UniProt P15692); experiment: Octet HTX biolayer interferometry in 1x kinetics buffer; antibody at 10 ug/mL in buffer as loading sample, recombinant human VEGF 200 to 3.125 nM (data of FIG. 3A); kdis Error printed 1.34E-07
[5] = biological target: recombinant human VEGF (R&D, 293-VE-010) (human) (UniProt P15692); experiment: Octet HTX biolayer interferometry; antibody prepared in conditioned medium at 100 ug/mL, diluted to 10 ug/mL in 1x kinetics buffer, as loading sample; recombinant human VEGF 200 to 3.125 nM (data of FIG. 3B); ka Error printed 8.54E+02
[6] = biological target: recombinant human VEGF (R&D, 293-VE-010) (human) (UniProt P15692); experiment: Octet HTX biolayer interferometry; antibody prepared in conditioned medium at 100 ug/mL, diluted to 10 ug/mL in 1x kinetics buffer, as loading sample; recombinant human VEGF 200 to 3.125 nM (data of FIG. 3B); kdis Error printed 1.27E-07

UniProt P15692, sequence (P15692 other isoform, or with tags, fused parts or gaps limits assumed): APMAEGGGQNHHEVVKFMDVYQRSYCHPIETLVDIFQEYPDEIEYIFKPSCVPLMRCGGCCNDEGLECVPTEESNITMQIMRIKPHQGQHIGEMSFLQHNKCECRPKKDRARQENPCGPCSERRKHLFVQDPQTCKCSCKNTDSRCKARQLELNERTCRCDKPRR

Substance: mouse anti-human VEGF monoclonal antibody (R&D, MAB293-100)
- Kd [1]: < 1 pM
- Kd [2]: < 1 pM
- kon [3]: 232000 M⁻¹ s⁻¹
- koff [4]: < 1e-07 s⁻¹
- kon [5]: 286000 M⁻¹ s⁻¹
- koff [6]: < 1e-07 s⁻¹
